Where no end group is shown, it is not given here. [ ]: non-standard residue; d: D form. pS = N[C@@H](COP(=O)(O)O)C(=O)O
Molecular target: recombinant human PP1α (residues 7–300) (human, UniProt P62136 7-300)
Assay: SPR

Sequence of recombinant human PP1α (residues 7–300) (P62136 7-300): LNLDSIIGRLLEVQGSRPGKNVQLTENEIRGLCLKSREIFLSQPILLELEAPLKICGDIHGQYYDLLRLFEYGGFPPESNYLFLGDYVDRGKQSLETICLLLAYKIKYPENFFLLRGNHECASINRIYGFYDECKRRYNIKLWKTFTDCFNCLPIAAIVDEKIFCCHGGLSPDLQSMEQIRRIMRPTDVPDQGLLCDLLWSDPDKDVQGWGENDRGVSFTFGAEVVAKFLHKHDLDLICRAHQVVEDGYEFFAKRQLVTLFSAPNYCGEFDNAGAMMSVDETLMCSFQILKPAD

Work on HIPR[pS]PYKFPSSPLRKKCCFHCQVCFITK (cysteine pairing not given here) [pRb-Tat hybrid peptide] yielded a koff of 0.00394 s⁻¹.

Source: article PMC6753193 (2019)
